According to patent US20240174727A1, “LONG-ACTING NATRIURETIC PEPTIDES AND USES THEREOF” (Eli Lilly and Company, priority 2022, published 2024):
Numbered stars: 1 amine (or outer) side, 2 acyl side, 3 side chain; on linkers, the order of the positions; unused ones are H or OH. Bridge positions count the residues as written; N and C are the ends. Square brackets hold non-standard residues; d marks the D form. * marks the point of attachment. thioacetal = thioacetal linkage between two cysteines (intrachain bond at the bracketed Cys); C20 diacid = O=C(O)CCCCCCCCCCCCCCCCCCC(=O)*; γGlu = O=C(O)[C@H](CCC(=O)[*:2])N[*:1]; Dap = NC[C@H](N)C(=O)O

Legend:
[1] = target: T1, rat NPRA (Rattus norvegicus, UniProt P18910); assay: Rat NPRA cGMP activity assay (HTRF) in HEK293 cells overexpressing NPRA; format: cell-based; settings: assay buffer with 0.1% casein, read-out: cGMP Assay (EC50, pM) w/Casein rNPRA
T1 construct: Full-Length cDNA Cloning and Generation of Cell Lines Overexpressing Natriuretic Peptide Receptors (NPRs); expressed in transfected cells; host or cells: Jump-in T-Rex HEK293 cells, pJTI R4 CMV-TO MCS pA vector, tetracycline induction
T1 sequence (P18910 29-1057): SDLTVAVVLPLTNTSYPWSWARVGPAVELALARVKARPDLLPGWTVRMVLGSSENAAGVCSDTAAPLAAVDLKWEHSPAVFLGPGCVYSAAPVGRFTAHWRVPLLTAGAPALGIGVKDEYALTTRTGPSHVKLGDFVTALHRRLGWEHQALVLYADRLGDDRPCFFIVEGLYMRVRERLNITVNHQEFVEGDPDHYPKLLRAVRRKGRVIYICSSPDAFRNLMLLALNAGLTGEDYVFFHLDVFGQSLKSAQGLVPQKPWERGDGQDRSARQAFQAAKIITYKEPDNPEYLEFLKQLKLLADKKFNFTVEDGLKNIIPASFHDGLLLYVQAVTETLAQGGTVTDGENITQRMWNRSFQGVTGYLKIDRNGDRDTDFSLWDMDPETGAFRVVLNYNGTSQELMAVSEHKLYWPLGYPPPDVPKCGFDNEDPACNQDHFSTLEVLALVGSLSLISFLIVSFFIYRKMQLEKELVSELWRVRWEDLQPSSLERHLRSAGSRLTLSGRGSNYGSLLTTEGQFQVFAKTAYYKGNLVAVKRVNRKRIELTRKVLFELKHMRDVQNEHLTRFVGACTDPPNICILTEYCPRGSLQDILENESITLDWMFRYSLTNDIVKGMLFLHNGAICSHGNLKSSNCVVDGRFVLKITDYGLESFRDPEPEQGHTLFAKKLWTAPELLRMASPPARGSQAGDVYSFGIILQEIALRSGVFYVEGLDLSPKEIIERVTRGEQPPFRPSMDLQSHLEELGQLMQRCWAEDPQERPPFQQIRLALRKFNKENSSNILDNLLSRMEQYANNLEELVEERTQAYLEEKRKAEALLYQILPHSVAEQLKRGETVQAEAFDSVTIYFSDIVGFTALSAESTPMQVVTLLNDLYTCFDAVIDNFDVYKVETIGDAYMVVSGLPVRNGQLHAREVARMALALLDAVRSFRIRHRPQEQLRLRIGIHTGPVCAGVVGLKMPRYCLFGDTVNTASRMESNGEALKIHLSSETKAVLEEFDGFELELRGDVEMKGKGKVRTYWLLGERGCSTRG
Description: All sequences were verified by full-length sequencing performed by ACGT DNA Sequencing Services (Wheeling, IL). The target cDNA was cloned into pJTI R4 CMV-TO MCS pA vector and then co-transfected with pJT1R4 Int vector into Jump-in™ T-Rex™ HEK293 cells for mammalian inducible expression using Jump-in™ T-Rex™ HEK293 kit and Lipofectamine LTX and Plus Reagent following manufacturer's protocols, as briefly described below.
Jump-in™ T-Rex™ HEK293 cells were plated in a BioCOAT® poly-D-lysine coated 6-well plate (Becton Dickinson, cat no. 354413) at 1 million cells/well in 2 mL culture medium and incubated for 18 h at 37° C. and 5% CO2 to 50-70% confluence. A cDNA mix was made in a 50 mL tube by adding 1.5 μg target cDNA, 1.5 μg pJT1R4 Int vector, 3 μL Plus Reagent, and 300 μL Opti-MEM I sequentially into the tube. A reagent mix was made in a separate 50 mL tube by adding 7.5 μL Lipofectamine LTX into 300 μL Opti-MEM I. The mixtures were incubated for 5 min at room temperature. The cDNA mix was then transferred into the reagent mix, mixed well, and incubated for additional 30 min at room temperature. A 500 μL of cDNA/Lipofectamine complex was then transferred to the wells of the cell plate in which the culture medium was changed to 2 mL of transfection medium containing DMEM with 4.5 g/L D-glucose supplemented with 10% FBS-HI and 20 mM HEPES. Transfected cells were cultured for 48 h in an incubator at 37° C. and 5% CO2. A subclone or pool from each overexpressing cell line was maintained in culture medium with the addition of 2 mg/mL G418 sulfate for the clone selection based on its built-in resistance to G418 sulfate for at least 3 weeks with medium changed every 2-3 days.
NPRs were overexpressed in T-Rex™ HEK293 cells following the induction with 300 ng/mL tetracycline in culture medium for 48 h. Induced cell lines in an exponential growth phase were treated with 0.05% trypsin-EDTA for a few seconds at room temperature, harvested in cell medium containing FBS to neutralize the trypsin, counted, and cryopreserved at the density of 2 million cells/mL in cell preservation solution containing FBS-HI with 5% DMSO. Cryopreserved cells were stored at −80° C. for a few days prior to transferring to a liquid nitrogen tank. Induced cell lines were then used for suspension assays to measure the activity of polypeptides to stimulate cGMP production in cGMP assays or for the preparation of cell membranes to measure the binding activity of polypeptides in competitive radioligand binding assays, as described below.
Test polypeptides were added starting at 10 μM concentration and at 10-fold decreasing concentrations to obtain 8-point concentration-response curves (i.e., 10 μM to 1 pM). The quantity of cGMP generated was detected using HTRF® technology and normalized to maximum amount produced by 100 nM amidated rat ANP and the minimum amount produced by assay buffer. Detailed steps are outlined below.
Stock solutions of test polypeptides (2 mM) dissolved in DMSO were first diluted 100-fold in assay buffer containing HBSS with Ca^2+ and Mg^2+, 5 mM HEPES, 0.5 mM IBMX, and 0.1% BSA or 0.1% casein (pH 7.4). The polypeptides were further serially diluted in 1:10 dilution steps in assay buffer containing 0.1% BSA or 0.1% casein to generate 8-point 2× working stock solutions ranging from 20 μM to […].
A 10 μL cell suspension containing 4000 cells was plated in Costar® half-area white opaque 96-well plates (Corning, cat no. 3693). Then 10 μL of assay buffer (basal activity), 200 nM of amidated rat ANP (maximum activity) or 2× working stock solutions of test polypeptides were transferred into the plate. Final concentration of DMSO in each well was 0.5%. The plate was shaken for 15 sec and then incubated for 40 min at room temperature.
The cGMP generated was measured using cGMP kit following the manufacturer's directions, as described below.

[2] = target: T2, human NPRA (human, UniProt P16066 33-1061); assay: cell-based or functional assay
T2 sequence (looked up): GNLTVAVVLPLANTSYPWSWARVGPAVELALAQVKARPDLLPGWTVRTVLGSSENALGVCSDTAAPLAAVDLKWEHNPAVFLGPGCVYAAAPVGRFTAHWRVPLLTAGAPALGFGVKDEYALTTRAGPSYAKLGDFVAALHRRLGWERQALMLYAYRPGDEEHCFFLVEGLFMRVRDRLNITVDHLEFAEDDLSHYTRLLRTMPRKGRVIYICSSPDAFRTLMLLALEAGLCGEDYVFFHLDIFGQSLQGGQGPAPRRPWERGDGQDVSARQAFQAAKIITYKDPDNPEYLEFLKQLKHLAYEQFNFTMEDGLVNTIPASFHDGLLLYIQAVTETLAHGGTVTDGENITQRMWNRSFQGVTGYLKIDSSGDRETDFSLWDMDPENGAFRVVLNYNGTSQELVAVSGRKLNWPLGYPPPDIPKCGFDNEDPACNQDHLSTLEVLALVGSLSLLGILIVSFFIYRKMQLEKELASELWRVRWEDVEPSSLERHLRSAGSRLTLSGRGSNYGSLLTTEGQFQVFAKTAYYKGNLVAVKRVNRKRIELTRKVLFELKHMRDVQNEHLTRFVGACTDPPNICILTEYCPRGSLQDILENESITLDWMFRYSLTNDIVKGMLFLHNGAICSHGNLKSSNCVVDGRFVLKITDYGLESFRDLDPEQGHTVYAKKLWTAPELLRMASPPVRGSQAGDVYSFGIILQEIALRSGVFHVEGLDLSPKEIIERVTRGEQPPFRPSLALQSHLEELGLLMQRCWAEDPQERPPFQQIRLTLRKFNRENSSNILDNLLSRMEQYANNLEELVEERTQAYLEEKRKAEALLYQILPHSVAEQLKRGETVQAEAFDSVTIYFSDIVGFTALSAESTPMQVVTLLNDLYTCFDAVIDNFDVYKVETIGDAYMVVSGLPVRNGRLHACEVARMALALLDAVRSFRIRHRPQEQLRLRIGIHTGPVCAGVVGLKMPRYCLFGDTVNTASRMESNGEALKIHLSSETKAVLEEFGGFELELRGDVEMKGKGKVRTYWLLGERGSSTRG

[3] = target: T3, rat NPRA (rat, UniProt P18910 29-1057); assay: cell-based or functional assay
T3 sequence (looked up): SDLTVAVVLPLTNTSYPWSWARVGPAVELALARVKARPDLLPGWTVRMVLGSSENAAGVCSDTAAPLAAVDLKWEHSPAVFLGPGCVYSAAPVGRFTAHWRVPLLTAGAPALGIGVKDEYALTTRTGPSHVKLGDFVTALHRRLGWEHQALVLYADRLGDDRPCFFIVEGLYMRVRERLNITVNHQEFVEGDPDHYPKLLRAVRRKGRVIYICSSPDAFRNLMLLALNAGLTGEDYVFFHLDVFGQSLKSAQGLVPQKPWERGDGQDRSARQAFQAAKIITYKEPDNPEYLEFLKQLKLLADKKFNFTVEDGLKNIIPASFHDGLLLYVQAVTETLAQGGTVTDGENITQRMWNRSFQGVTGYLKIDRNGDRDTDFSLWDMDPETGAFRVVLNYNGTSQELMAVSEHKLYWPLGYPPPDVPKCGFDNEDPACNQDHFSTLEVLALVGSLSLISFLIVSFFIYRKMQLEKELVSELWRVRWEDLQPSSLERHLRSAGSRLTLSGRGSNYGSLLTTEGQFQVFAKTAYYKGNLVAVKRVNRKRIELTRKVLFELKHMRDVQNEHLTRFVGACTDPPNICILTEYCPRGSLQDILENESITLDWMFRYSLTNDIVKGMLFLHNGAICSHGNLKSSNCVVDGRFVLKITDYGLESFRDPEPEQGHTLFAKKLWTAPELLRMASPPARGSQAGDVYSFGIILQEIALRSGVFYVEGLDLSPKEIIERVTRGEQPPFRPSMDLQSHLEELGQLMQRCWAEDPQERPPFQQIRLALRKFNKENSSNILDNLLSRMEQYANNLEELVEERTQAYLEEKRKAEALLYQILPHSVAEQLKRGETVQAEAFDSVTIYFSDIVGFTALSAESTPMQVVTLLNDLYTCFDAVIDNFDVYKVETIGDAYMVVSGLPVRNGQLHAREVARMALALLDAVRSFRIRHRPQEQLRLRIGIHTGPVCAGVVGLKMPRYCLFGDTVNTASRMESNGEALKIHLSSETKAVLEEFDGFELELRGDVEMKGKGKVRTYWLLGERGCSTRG

Molecule | EC50 [1] [pM] | cGMP Assay (EC50, pM) w/BSA, hNPRA [2] [pM] | cGMP Assay (EC50, pM) w/Casein, hNPRA [2] [pM] | cGMP Assay (EC50, pM) w/BSA, rNPRA [3] [pM] | cGMP Assay (EC50, pM) w/Casein, rNPRA [3] [pM]
CC[C@H](C)[C@@H]1NC(=O)[C@H](CCCNC(=N)N)NC(=O)[C@H](CC(=O)O)NC(=O)[C@H]([C@@H](C)CC)NC(=O)[C@H](CCCNC(=N)N)NC(=O)CNC(=O)CNC(=O)[C@H](Cc2ccccc2)NC(=O)[C@@H](NC(=O)[C@H](CO)NC(=O)[C@H](CO)NC(=O)[C@H](CCCNC(=N)N)NC(=O)[C@H](CCCNC(=N)N)NC(=O)[C@H](Cc2ccncc2)NC(=O)[C@H](CO)NC(=O)CCOCCOCCOCCOCCOCCOCCOCCOCCOCCOCCOCCOCCNC(=O)CNC(=O)[C@H](CCCCN)NC(=O)[C@H](CCC(=O)O)NC(=O)[C@H](CCCCN)NC(=O)[C@H](CCC(=O)O)NC(=O)[C@H](CCCCN)NC(=O)[C@H](CCC(=O)O)NC(=O)CC[C@H](NC(=O)CCCCCCCCCCCCCCCCCCC(=O)O)C(=O)O)CSCSC[C@@H](C(=O)N2CCC[C@H]2C(=O)N[C@@H](CO)C(=O)N[C@@H](Cc2ccccc2)C(=O)N[C@@H](CCCNC(=N)N)C(=O)N[C@@H](Cc2c[nH]cn2)C(=O)NCC(=O)NCC(=O)N[C@@H](CCCCN)C(=O)N[C@@H](CO)C(=O)N[C@@H](CO)C(=O)NCC(=O)N[C@@H](C)C(=O)N2CCC[C@H]2C(=O)N2CCC[C@H]2C(=O)N2CCC[C@H]2C(=O)N[C@@H](CO)C(N)=O)NC(=O)CNC(=O)[C@H](CC(C)C)NC(=O)CNC(=O)[C@H](CO)NC(=O)[C@H](CCC(N)=O)NC(=O)[C@H](Cc2c[nH]cn2)NC(=O)CNC1=O [Example 82] | 25400 | – | – | – | –
{C20 diacid-γGlu}-EKEKEKGEKPRSSCFGKRIDRIGRYSGLGCPSFRHGSPSSGAPPPS-NH2 (bridge 14-30 via thioacetal) [HOOC-(CH2)18-CO-(γGlu)-EKEKEKGEKPRSS[CFGKRIDRIGRYSGLGC]PSFRHGSPSSGAPPPS-NH2] | – | 11700 | 692 | 4.18e+06 | 41100
{C20 diacid-γGlu}-EKEKEKGEKPRSSCFGG[Dap]IDRIGHQSGLGCPSFRHGSPSSGAPPPS-NH2 (bridge 14-30 via thioacetal) [HOOC-(CH2)18-CO-(γGlu)-EKEKEKGEKPRSS[CFGG-Dap-IDRIGHQSGLGC]PSFRHGSPSSGAPPPS-NH2] | – | 2.87e+06 | 19700 | 1.73e+06 | 200000
